From US6518063 come the findings set out here.

The data set deals with OSF2/CBFA1b (lacks 22 aa of exon 8) deletion of 22 aa encoded by exon 8 (Homo sapiens) (UniProt Q13950). Description: cell_activity. The conditions noted are these: p6OSE2-luc, F9 cells.
Chain of OSF2/CBFA1b (lacks 22 aa of exon 8) deletion of 22 aa encoded by exon 8 (Homo sapiens) (Q13950 whole entry, stated change not applied): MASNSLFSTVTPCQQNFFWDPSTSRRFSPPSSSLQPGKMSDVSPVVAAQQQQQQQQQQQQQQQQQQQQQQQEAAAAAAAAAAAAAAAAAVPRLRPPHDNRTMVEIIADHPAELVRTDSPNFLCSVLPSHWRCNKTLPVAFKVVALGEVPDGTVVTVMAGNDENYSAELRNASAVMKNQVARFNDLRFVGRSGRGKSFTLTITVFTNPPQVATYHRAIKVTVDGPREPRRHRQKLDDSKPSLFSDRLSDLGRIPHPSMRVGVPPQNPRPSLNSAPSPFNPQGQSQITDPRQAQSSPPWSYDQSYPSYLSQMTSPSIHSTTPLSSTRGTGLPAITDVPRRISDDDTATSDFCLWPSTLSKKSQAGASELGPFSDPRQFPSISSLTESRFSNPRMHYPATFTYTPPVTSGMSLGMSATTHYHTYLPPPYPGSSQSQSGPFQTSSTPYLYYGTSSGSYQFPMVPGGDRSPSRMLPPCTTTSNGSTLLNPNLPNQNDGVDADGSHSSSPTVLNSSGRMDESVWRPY

With “AGCTGCAATCACCAACCACAGCA (double strand) [Osteocalcin (OG2) OSE2]”, the activity (fold activation) came to 40.
